B1: M482K: GFP-tagged PAK4 M482K mutant; catalytic domain (Fig 4G) or full-length (Fig 4H) (protein, UniProt O96013 1-591, looked up, variant M482K)
Serine/threonine-protein …: MFGKRKKRVEISAPSNFEHRVHTGFDQHEQKFTGLPRQWQSLIEESARRPKPLVDPACITSIQPGAPKTIVRGSKGAKDGALTLLLDEFENMSVTRSNSLRRDSPPPPARARQENGMPEEPATTARGGPGKAGSRGRFAGHSEAGGGSGDRRRAGPEKRPKSSREGSGGPQESSRDKRPLSGPDVGTPQPAGLASGAKLAAGRPFNTYPRADTDHPSRGAQGEPHDVAPNGPSAGGLAIPQSSSSSSRPPTRARGAPSPGVLGPHASEPQLAPPACTPAAPAVPGPPGPRSPQREPQRVSHEQFRAALQLVVDPGDPRSYLDNFIKIGEGSTGIVCIATVRSSGKLVAVKKMDLRKQQRRELLFNEVVIMRDYQHENVVEMYNSYLVGDELWVVMEFLEGGALTDIVTHTRMNEEQIAAVCLAVLQALSVLHAQGVIHRDIKSDSILLTHDGRVKLSDFGFCAQVSKEVPRRKSLVGTPYWKAPELISRLPYGPEVDIWSLGIMVIEMVDGEPPYFNEPPLKAMKMIRDNLPPRLKNLHKVSPSLKGFLDRLLVRDPAQRATAAELLKHPFLAKAGPPASIVPLMRQNRTR
modifications: GFP tag
B2: Q358A: GFP-tagged PAK4 Q358A mutant; catalytic domain (Fig 4G) or full-length (Fig 4H) (protein, UniProt O96013 1-591, looked up, variant Q358A)
Serine/threonine-protein …: MFGKRKKRVEISAPSNFEHRVHTGFDQHEQKFTGLPRQWQSLIEESARRPKPLVDPACITSIQPGAPKTIVRGSKGAKDGALTLLLDEFENMSVTRSNSLRRDSPPPPARARQENGMPEEPATTARGGPGKAGSRGRFAGHSEAGGGSGDRRRAGPEKRPKSSREGSGGPQESSRDKRPLSGPDVGTPQPAGLASGAKLAAGRPFNTYPRADTDHPSRGAQGEPHDVAPNGPSAGGLAIPQSSSSSSRPPTRARGAPSPGVLGPHASEPQLAPPACTPAAPAVPGPPGPRSPQREPQRVSHEQFRAALQLVVDPGDPRSYLDNFIKIGEGSTGIVCIATVRSSGKLVAVKKMDLRKQARRELLFNEVVIMRDYQHENVVEMYNSYLVGDELWVVMEFLEGGALTDIVTHTRMNEEQIAAVCLAVLQALSVLHAQGVIHRDIKSDSILLTHDGRVKLSDFGFCAQVSKEVPRRKSLVGTPYWMAPELISRLPYGPEVDIWSLGIMVIEMVDGEPPYFNEPPLKAMKMIRDNLPPRLKNLHKVSPSLKGFLDRLLVRDPAQRATAAELLKHPFLAKAGPPASIVPLMRQNRTR
modifications: GFP tag

Key:
integrin β5 tail [1] = assay: Pull-down of wild-type and mutated GFP-PAK4 catalytic domain by wild-type integrin β5 tail; format: binding; conditions: for Effect of PAK4 mutation on pull-down by integrin β5: catalytic domain (Fig. 4g) and full-length PAK4 (Fig. 4h)
Procedure: (§1) Pull down assays were performed as previously described[45],[60]. Briefly, constructs encoding an N-terminal His-tag followed by a helical region, a 4-glycine spacer, and an integrin cytoplasmic tail sequence were produced in BL21 (DE3) bacteria. Following bacterial cell lysis, recombinant protein was bound to Ni-NTA beads, eluted with imidazole, dialyzed and further purified by reverse-phase high-performance liquid chromatography (HPLC). Purified protein was lyophilized for storage and was used to coat fresh Ni-NTA beads to generate an affinity matrix for pull-down assays.
(§2) For pulldowns from cell lysates, human PAK4 constructs were generated in pEGFP (Takara Bio Inc.) by PCR amplification from a pLX304 PAK4 isoform 1 (Uniprot O96013-1) construct kindly provided by Michael Calderwood (Dana-Farber Cancer Institute). Mutations and deletions were introduced by QuikChange mutagenesis or PCR amplification. Chinese hamster ovary (CHO) cells were seeded on 10 cm tissue culture dishes and transiently transfected with GFP-tagged constructs using polyethylenimine (Polysciences). After 24 h, cells were harvested and lysed in buffer X (1 mM NaVO4, 50 mM NaF, 40 mM sodium pyrophosphate, 50 mM NaCl, 150 mM sucrose, 10 mM Pipes, pH 6.8) containing 0.5% Triton X-100, 0.2% deoxycholic acid, and complete EDTA-free protease inhibitor mixture (Roche, Indianapolis, IN, USA) for 15 min at 4 °C. After clarification by centrifugation, lysate was diluted in buffer X-T (buffer X with 0.05% Triton X-100) and incubated with His-tagged integrin tails coupled to Ni-NTA beads for 4 h with rocking at 4 °C. For experiments using purified PAK4cat, protein was incubated with His-tagged integrin tails coupled to Ni-NTA beads in buffer X-T for 2 h with rocking at 4 °C. Beads were then washed three times with buffer X-T, and bound proteins were fractionated by reducing SDS-PAGE and analyzed by immunoblotting with anti-GFP antibodies (600-101-215, Rockland). Immunoblots were imaged on an Odyssey IR imaging system (Li-Cor; Lincoln, NE, USA) and analyzed using Image Studio Lite (Li-Cor; Lincoln, NE, USA). For the quantification of binding from immunoblots, the fluorescence intensity of the band corresponding to bound material was quantified as a fraction of the fluorescence of the input material band for each condition. Loading of integrin tails was assessed by Coomassie Blue staining. Data were analyzed using GraphPad Prism.

integrin β5 tail [2] = assay: Pull-down of wild-type and mutated full-length GFP-PAK4 by wild-type integrin β5 tail; format: binding
Procedure: as §1, §2

[3] = Figure 4G source data, PAK4 catalytic domain, replicate 1
[4] = Figure 4H source data, full-length PAK4, experiment row r4

Molecule | Binding to wild-type integrin β5 tail, normalized to cat-WT (integrin β5 tail [1]; [3]) | Binding to wild-type integrin β5 tail, normalized to cat-WT (integrin β5 tail [1]; Figure 4G, replicate 2) | Binding to wild-type integrin β5 tail, normalized to cat-WT (integrin β5 tail [1]; Figure 4G, replicate 3) | Binding to wild-type integrin β5 tail, normalized to cat-WT (integrin β5 tail [1]; Figure 4G, replicate 4) | Binding to wild-type integrin β5 tail, normalized to cat-WT (integrin β5 tail [1]; Figure 4G, replicate 5) | Binding to wild-type integrin β5 tail, normalized to cat-WT (integrin β5 tail [1]; Figure 4G, replicate 6) | Effect of PAK4 mutation on pull-down by integrin β5 (integrin β5 tail [1]) | Binding to wild-type integrin β5 tail, normalized to FL-WT (integrin β5 tail [2]; [4]) | Binding to wild-type integrin β5 tail, normalized to FL-WT (integrin β5 tail [2]; Figure 4H, experiment row r5) | Binding to wild-type integrin β5 tail, normalized to FL-WT (integrin β5 tail [2]; Figure 4H, experiment row r6) | Binding to wild-type integrin β5 tail, normalized to FL-WT (integrin β5 tail [2]; Figure 4H, experiment row r7) | Binding to wild-type integrin β5 tail, normalized to FL-WT (integrin β5 tail [2]; Figure 4H, experiment row r8) | Binding to wild-type integrin β5 tail, normalized to FL-WT (integrin β5 tail [2]; Figure 4H, experiment row r10) | Binding to wild-type integrin β5 tail, normalized to FL-WT (integrin β5 tail [2]; Figure 4H, experiment row r11) | Binding to wild-type integrin β5 tail, normalized to FL-WT (integrin β5 tail [2]; Figure 4H, experiment row r17) | Binding to wild-type integrin β5 tail, normalized to FL-WT (integrin β5 tail [2]; Figure 4H, experiment row r19) | Binding to wild-type integrin β5 tail, normalized to cat-WT (integrin β5 tail [1]; Figure 4G, replicate 7) | Binding to wild-type integrin β5 tail, normalized to cat-WT (integrin β5 tail [1]; Figure 4G, replicate 8) | Binding to wild-type integrin β5 tail, normalized to cat-WT (integrin β5 tail [1]; Figure 4G, replicate 9) | Binding to wild-type integrin β5 tail, normalized to FL-WT (integrin β5 tail [2]; Figure 4H, experiment row r18)
B1 | 0.517 | 0.2755 | 0.5038 | 0.2427 | 0.2915 | 0.007133 | moderate effect | 0.259 | 1.377 | 0.432 | 0.512 | 0.381 | 1.044 | 0.278 | 0.149 | 0.8 |  |  |  | 
B2 | 0.8373 | 0.4614 | 0.71 | 1.075 | 0.4677 | 1.0032 | no effect on binding | 0.221 | 0.9415 |  |  | 0.58 | 3.01 |  | 1.265 | 1.25 | 1.283 | 1.183 | 0.828 | 0.66
